Our source for the Kd values is publication PMC12188319.

The target in this assay is FcγRIIIa (UniProt P08637). Description: SPR. For orientation: In SPR one partner is held on a chip, and binding of the other changes the refractive index at the surface.
Sequence of UniProt P08637 (P08637 17-254): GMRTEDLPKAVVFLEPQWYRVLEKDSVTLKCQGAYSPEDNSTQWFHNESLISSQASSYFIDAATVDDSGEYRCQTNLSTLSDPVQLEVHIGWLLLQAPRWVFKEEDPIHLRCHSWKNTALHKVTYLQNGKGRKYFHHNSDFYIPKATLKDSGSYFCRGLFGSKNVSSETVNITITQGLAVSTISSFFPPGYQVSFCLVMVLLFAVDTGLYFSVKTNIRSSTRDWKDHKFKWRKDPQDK

The substance JSKN003 (bispecific antibody) displayed a Kd of 150 nM.

What is called Kd is the free concentration of one partner at which half of the binding sites on the other are occupied at equilibrium, for simple one-to-one binding. Read a high Kd as lower affinity.
